Test results from PMC10272835, “Exploration of T cell immune responses by expression of a dominant-negative SHP1 and SHP2” (Frontiers in Immunology, 2023).

B1: CD155: inhibitory ligand of TIGIT expressed on SupT1-GD2 cells (protein, UniProt P15151 21-417, looked up)
Poliovirus receptor: WPPPGTGDVVVQAPTQVPGFLGDSVTLPCYLQVPNMEVTHVSQLTWARHGESGSMAVFHQTQGPSYSESKRLEFVAARLGAELRNASLRMFGLRVEDEGNYTCLFVTFPQGSRSVDIWLRVLAKPQNTAEVQKVQLTGEPVPMARCVSTGGRPPAQITWHSDLGGMPNTSQVPGFLSGTVTVTSLWILVPSSQVDGKNVTCKVEHESFEKPQLLTVNLTVYYPPEVSISGYDNNWYLGQNEATLTCDARSNPEPTGYNWSTTMGPLPPFAVAQGAQLLIRPVDKPINTTLICNVTNALGARQAELTVQVKEGPPSEHSGISRNAIIFLVLGILVFLILLGIGIYFYWSKCSREVLWHCHLCPSSTEHASASANGHVSYSAVSRENSSSQDPQTEGTR
B2: HVEM: inhibitory ligand of BTLA expressed on SupT1-GD2 cells (protein, UniProt Q92956 39-283, looked up)
Tumor necrosis factor …: LPSCKEDEYPVGSECCPKCSPGYRVKEACGELTGTVCEPCPPGTYIAHLNGLSKCLQCQMCDPAMGLRASRNCSRTENAVCGCSPGHFCIVQDGDHCAACRAYATSSPGQRVQKGGTESQDTLCQNCPPGTFSPNGTLEECQHQTKCSWLVTKAGAGTSSSHWVWWFLSGSLVIVIVCSTVGLIICVKRRKPRGDVVKVIVSVQRKRQEAEGEATVIEALQAPPDVTTVAVEETIPSFTGRSPNH

Tested on: SupT1-GD2 cells
Assay: Effect of inhibitory ligand expression on GD2 CAR cytotoxicity
Type: cell-based
Details: ligand expressed on SupT1-GD2, E:T 1:4 and 1:8, 6 days
Experimental: Transduced T cells were depleted of CD56 cells using the EasySep Human CD56 positive selection kit (Stemcell Technologies; 17855) and rested for 24 hours. Transduced cells were co-cultured with target cells at the indicated effector: target (E:T) ratios with target cells remaining constant at the indicated number of target cells/co-culture. At the end of the co-culture period target cells were enumerated by flow cytometry and cytotoxicity calculated as a percentage of the number of target cells recovered from co-cultures with non-transduced (NT) T cells.
Figure 3 Interaction of dSHP2 with immunoinhibitory T cell receptors. (A-E) Binding of dSHP2 to phosphorylated peptides derived from the endodomains of immunoinhibitory T cell receptors. Plates were coated with phosphorylated or non-phosphorylated peptide at the indicated concentration and the purified, His-tagged SH2 domains of dSHP2 were allowed to bind overnight. Binding was measured through detection of the His tag. (F) Effect of inhibitory ligand expression on target cells on CAR T cytotoxicity. […] Supernatants were harvested from these co-cultures and levels of IFNγ measured by ELISA (I). […] Statistical significance was measured by two-way ANOVA. […]

Row | Molecule | effect of target cell ligand expression on CAR T cytotoxicity
1 | B1 | mild enhancement of CAR T cytotoxicity
2 | B2 | mild enhancement of CAR T cytotoxicity
